For test [1], the target named is T1, human pIgR, full-length, on cells (human, UniProt P01833 19-764).
T1 construct: whole, on cells; Used for the flow cytometry EC50 values (MDCK-hpIgR) and for the transcytosis read-outs; also called hpIgR; cell-surface hpIgR
Kind of test: flow cytometry on MDCK-hpIgR cells; summary table, repeats Table 1.
Protocol: Flow Cytometry was performed as follows. To test whether VHH-mono-Fc molecules recognize cell-surface hpIgR, Madin-Darby canine kidney (MDCK) cells engineered to express full-length hpIgR were used. Cells were cultured in Dulbecco's modified Eagle's medium containing 10% fetal calf serum at 37° C. with 5% CO₂. Cells were split into equal fractions (≈70,000 cells) and incubated with increasing concentrations of VHH-mono-Fc molecules for 30 min at 4 C. […] Cells were washed twice with cold staining buffer, resuspended in running buffer and analyzed with an iQue Screener (IntelliCyt Corporation). Binding was assessed by RL1 (A647) Geomeans from the live cell population and EC50 was calculated by fitting log VHH concentration versus MFI in Prism (Graphpad).

Test [2] addresses T2, human pIgR extracellular domain 1 (D1) (human, UniProt P01833 19-127).
T2 construct: HIS-tagged construct made in HEK293 cells; also called hpIgR domain-1
Put plainly: BLI, HIS-tagged pIgR construct on anti-HIS biosensors.
Protocol: (§1) Bio-layer Interferometry was performed as follows. […] Data were collected with Octet Data Acquisition version 7.1.0.87 (ForteBio) and analyzed using Octet Data Analysis version 7.1 (ForteBio). To measure binding kinetics between VHH-mono-Fc molecules and HIS-tagged pIgR proteins, VHH-mono-Fc was immobilized on amine-reactive generation-2 (ARG2) biosensors according to manufacturer's instructions and increasing concentrations of pIgR proteins were exposed to sensor-immobilized VHH. In some cases, HIS-tagged pIgR proteins were immobilized on anti-HIS biosensors and exposed to increasing concentrations of VHH-mono-Fc molecules. Association and dissociation rates were measured by the shift in wavelength (nm). […] All reactions were performed at 25° C. in PBS.
(§2) (Full-length hpIgR ECD was purchased from R&D Systems.) The five constructs (D1-D2, D1, D1_tCDR1, D1_tCDR2, D1_tCDR3) were expressed and purified from HEK293 cells using immobilized metal ion affinity chromatography. Three hpIgR domain-1 CDR mutants (D1_tCDR1, D1_tCDR2, D1_tCDR3) contain respective teleost fish CDR on a hpIgR domain-1 framework. His-tagged pIgR constructs were immobilized on anti-HIS biosensors and binding of VHH-mono-Fc molecules to pIgR constructs were measured by bio-layer interferometry.

The target of test [3] is T3, hpIgR domain-1 with teleost fish CDR3 (hD1 tCDR3) (human, UniProt P01833 19-127, limits assumed).
T3 construct: CDR-swapped hpIgR domain-1 mutant, HIS-tagged, made in HEK293 cells; not shown: HIS tag
The description is as above.

In test [4] the target is T4, hpIgR domain-1 with teleost fish CDR1 (hD1 tCDR1) (human, UniProt P01833 19-127, limits assumed).
T4 construct: CDR-swapped hpIgR domain-1 mutant, HIS-tagged, made in HEK293 cells; not shown: HIS tag
Described as above.

Test [5] deals with T5, human pIgR extracellular domain 1-domain 2 (D1-D2) (human, UniProt P01833 19-240).
T5 construct: HIS-tagged construct made in HEK293 cells
The description is as above.
Protocol: as §1, §2

Test [6] concerns the target T1, human pIgR, full-length, on cells. Kind of test: flow cytometry on MDCK-hpIgR cells.
Test [7] has the same target. Put plainly: cell-based or functional assay.
The target in test [8] is T6, human pIgR extracellular domain 5 (D5) (human, UniProt P01833 460-565).
T6 construct: HIS-tagged construct made in HEK293 cells; also called hpIgR domain 5
Put plainly: ECL (MSD) heat map, HIS-tagged construct captured via anti-HIS, anti-human-Fc detection.

For test [9], the target named is T7, human pIgR extracellular domain 2 (D2) (human, UniProt P01833 128-242).
T7 construct: HIS-tagged construct made in HEK293 cells; also called hpIgR domain 2
The test is described as above.

The next test deals with T8, hpIgR_D3.
T8 construct: HIS-tagged construct from HEK293 cells; also called human pIgR extracellular domain 3 (D3); hD3
T8 HIS-tagged domain construct: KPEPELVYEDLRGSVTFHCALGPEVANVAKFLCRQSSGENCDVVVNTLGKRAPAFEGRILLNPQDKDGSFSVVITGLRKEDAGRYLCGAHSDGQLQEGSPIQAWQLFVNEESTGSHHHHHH
Described as above.

For test [10], the target named is T9, human pIgR extracellular domain (ECD) (human, UniProt P01833 19-638).
T9 construct: also called hpIgR ECD
Kind of test: BLI; summary table, repeats Table 1.
Target sequence in this assay (P01833 other isoform, or with tags, fused parts or gaps): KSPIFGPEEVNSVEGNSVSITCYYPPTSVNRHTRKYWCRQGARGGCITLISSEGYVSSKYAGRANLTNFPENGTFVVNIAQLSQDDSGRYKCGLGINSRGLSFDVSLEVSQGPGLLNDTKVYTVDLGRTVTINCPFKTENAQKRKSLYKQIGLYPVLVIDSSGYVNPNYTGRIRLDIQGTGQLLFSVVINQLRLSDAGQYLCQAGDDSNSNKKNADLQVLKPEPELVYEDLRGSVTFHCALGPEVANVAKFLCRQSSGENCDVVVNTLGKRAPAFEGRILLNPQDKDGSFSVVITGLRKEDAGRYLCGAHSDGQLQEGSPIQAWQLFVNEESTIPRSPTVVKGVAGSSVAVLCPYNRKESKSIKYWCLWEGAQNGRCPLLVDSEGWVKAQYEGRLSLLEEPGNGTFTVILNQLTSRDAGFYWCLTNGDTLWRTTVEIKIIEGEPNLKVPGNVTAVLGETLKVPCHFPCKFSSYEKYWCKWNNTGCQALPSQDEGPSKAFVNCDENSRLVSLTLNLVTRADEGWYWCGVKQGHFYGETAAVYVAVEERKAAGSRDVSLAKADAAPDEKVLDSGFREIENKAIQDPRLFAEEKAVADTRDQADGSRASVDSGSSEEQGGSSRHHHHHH

The target in test [11] is T2, human pIgR extracellular domain 1 (D1). Kind of test: ratio of the second to the first EC50 column.
In test [12] the target is T5, human pIgR extracellular domain …. Put plainly: ratio of the second to the first EC50 column.
A further test has as its target T10, hpIgR_D2-D3.
T10 construct: HIS-tagged construct from HEK293 cells; also called human pIgR extracellular domain 2-domain 3 (D2-D3); hD2-D3
T10 HIS-tagged domain construct: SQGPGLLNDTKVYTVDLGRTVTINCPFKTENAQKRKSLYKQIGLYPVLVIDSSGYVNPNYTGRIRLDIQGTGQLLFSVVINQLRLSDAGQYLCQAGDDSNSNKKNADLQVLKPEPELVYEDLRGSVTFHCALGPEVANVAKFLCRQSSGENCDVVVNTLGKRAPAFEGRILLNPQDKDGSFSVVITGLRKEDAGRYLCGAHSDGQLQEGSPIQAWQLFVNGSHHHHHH
Kind of test: ECL (MSD) heat map, HIS-tagged construct captured via anti-HIS, anti-human-Fc detection.

The target of test [13] is T1, human pIgR, full-length, on cells. Kind of test: cell-based or functional assay. The source holds these as a separate data set.
The target of test [14] is T9, human pIgR extracellular domain (ECD). Put plainly: ECL (MSD), hpIgR-ECD coated, anti-VHH detection.
Target sequence in this assay (P01833 other isoform, or with tags, fused parts or gaps): as the sequence (P01833 other isoform, or with tags, fused parts or gaps) above
Test [15] shares this target. Put plainly: BLI (Octet), VHH-mono-Fc and hpIgR ectodomain.
Target sequence in this assay (P01833 other isoform, or with tags, fused parts or gaps): as the sequence (P01833 other isoform, or with tags, fused parts or gaps) above
Test [16] has the same target. Kind of test: ECL (MSD), hpIgR-ECD coated, anti-Fc detection.
Protocol: To check whether VHH recognizes a buried epitope on pIgR, EC₅₀ values were measured for VHH-mono-Fc molecules binding to hpIgR-ECD protein by electrochemiluminescence using two different detection antibodies, an anti-Fc antibody and an anti-VHH antibody. pIgR ECD (10 μg/ml in PBS) was coated on high-bind MSD plates for 2 hours at RT with 1000 rpm, incubated with blocking buffer for 1 hour at RT, incubated with VHH-mono-Fc molecules (increasing concentrations in PBS) for 2 hours at RT with 1000 rpm, washed 3× with PBT, incubated with ruthenylated secondary antibody (2 μg/ml in PBS) for 1 hour at RT with 1000 rpm, washed 3× with PBT and read plates in 40 ul reading buffer using the MSD imager. EC50 was calculated by fitting log VHH concentration versus log ECLU in Prism (Graphpad). The increase in EC₅₀ (>50-fold) due to anti-VHH detection was used as a measure to determine whether VHH recognized buried epitope on pIgR.
The target in test [17] is T2, human pIgR extracellular domain 1 (D1). Put plainly: ECL (MSD); headed 'Anti-Fc' on the sheet, but its ECD values are the anti-VHH values of Table 2, so anti-VHH detection.
Target sequence in this assay (P01833 other isoform, or with tags, fused parts or gaps limits assumed): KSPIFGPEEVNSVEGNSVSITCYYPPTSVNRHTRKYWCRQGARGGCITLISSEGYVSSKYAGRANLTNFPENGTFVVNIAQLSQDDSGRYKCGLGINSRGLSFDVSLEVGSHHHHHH
In test [18] the target is T5, human pIgR extracellular domain …. Described as above.
Test [19] deals with T11, hpIgR domain-1 with teleost fish CDR2 (hD1 tCDR2) (human, UniProt P01833 19-127, limits assumed).
T11 construct: CDR-swapped hpIgR domain-1 mutant, HIS-tagged, made in HEK293 cells; not shown: HIS tag
T11 chain: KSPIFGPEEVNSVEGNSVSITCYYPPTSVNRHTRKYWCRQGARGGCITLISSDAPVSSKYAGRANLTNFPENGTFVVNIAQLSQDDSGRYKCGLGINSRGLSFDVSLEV
Kind of test: BLI, HIS-tagged construct on anti-HIS biosensors.

In test [20] the target is T5, human pIgR extracellular domain …. Put plainly: ECL (MSD), Log ECLU against Log [VHH] nM, anti-Fc detection (first EC50 column).

The text below walks through data of patent US20220324970A1 (Janssen / Centocor, published 2022).

T1 sequence (P01833 19-764): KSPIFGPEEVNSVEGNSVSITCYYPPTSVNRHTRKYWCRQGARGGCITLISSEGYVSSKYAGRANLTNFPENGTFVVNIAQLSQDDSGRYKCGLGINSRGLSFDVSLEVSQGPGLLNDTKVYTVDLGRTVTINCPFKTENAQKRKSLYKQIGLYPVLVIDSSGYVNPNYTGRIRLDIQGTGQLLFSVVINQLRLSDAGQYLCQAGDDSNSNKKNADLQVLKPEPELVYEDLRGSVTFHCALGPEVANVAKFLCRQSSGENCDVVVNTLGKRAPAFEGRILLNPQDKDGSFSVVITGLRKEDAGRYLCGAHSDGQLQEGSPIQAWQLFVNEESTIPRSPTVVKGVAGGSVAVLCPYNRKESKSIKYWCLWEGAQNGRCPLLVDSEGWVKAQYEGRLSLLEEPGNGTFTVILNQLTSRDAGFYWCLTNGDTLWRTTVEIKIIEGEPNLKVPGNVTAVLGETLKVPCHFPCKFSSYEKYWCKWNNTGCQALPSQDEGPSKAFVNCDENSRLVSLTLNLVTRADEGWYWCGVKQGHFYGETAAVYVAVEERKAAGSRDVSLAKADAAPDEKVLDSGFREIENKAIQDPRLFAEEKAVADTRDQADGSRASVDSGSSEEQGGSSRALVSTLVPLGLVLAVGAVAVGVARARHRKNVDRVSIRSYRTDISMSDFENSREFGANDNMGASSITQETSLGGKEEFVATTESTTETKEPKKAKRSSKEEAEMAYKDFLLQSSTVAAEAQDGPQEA
T6 sequence (P01833 other isoform, or with tags, fused parts or gaps limits assumed): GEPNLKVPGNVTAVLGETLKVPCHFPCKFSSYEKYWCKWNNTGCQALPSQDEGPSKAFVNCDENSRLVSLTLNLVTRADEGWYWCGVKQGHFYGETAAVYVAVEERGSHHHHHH

B1: VHH3-linker-mono-Fc protein (Fc fusion)
chain: QLQLVESGGGLVQPGGSLRLSCAASGSIFSINVMGWYRQAPGKQRELVARINGGGITHYAESVKGRFTISRDNAKNTVYLQMNSLKPEDTAAYYCKADVFGSSGYVETYWGQGTQVTVSSEPKTPKPQPQPQLQPQPNPTTESKSPKSPAPELLGGPSVFLFPPKPKDTLMISRTPEVTCVVVDVSHEDPEVKFNWYVDGVEVHNAKTKPREEQYNSTYRVVSVLTVLHQDWLNGKEYKCKVSNKALPAPIEKTISKAKGQPREPQVYTKPPSREEMTKNQVSLSCLVKGFYPSDIAVEWESNGQPENNYKTTVPVLDSDGSFRLASYLTVDKSRWQQGNVFSCSVMHEALHNHYTQKSLSLSPGK
notes: made in CHO cells; also called VHH3-mono-Fc; hpIgR_021
As to B1, the EC50 in test [1] was determined as 6.4 nM; in test [6] it was 6.4 nM; in test [14] it was 28.6 nM; in test [16], 0.5 nM; in test [17], 17.6 nM; in [18], 13.7 nM. Also, in [20], the EC50 worked out at 1.2 nM. Further, the Kd in test [2] is 7.7 nM; in [3], 7.5 nM; in test [4] it was 77 nM; in test [5], 13.3 nM; in test [10], 5 nM; in test [15], 5 nM. Also, in [7], the “Transcytosis (Fold Incr.)” value was found to be 2.6 fold. The binding result in test [8] is given as “no binding (tested: 100 ug/ml (single concentration))”; in test [9], “no binding (tested: 100 ug/ml (single concentration))”; with hpIgR_D3, “no binding (tested: 100 ug/ml (single concentration))”; with hpIgR_D2-D3, “no binding (tested: 100 ug/ml (single concentration))”; in test [19], “no binding”. The Fold change in test [11] is 5.7; in [12], 11.9. In addition, the “For. Trans. (Fold Incr.)” value in test [13] was 1 fold. In addition, in test [13], the “Rev. Trans (Fold Incr.)” value was 1 fold.

B2: VHH2-linker-mono-Fc protein (Fc fusion)
chain: EVQVVESGGGLVQAGGSLKLACAAPGLTFSSYRMGWFRQAPGQEREFVAAIDWNGRGTYYRYYADSVKGRSTISRDNAKNTVYLQMNSLKPEDTAVYYCAATTVLTDPRVLNEYATWGQGTQVTVSSEPKTPKPQPQPQLQPQPNPTTESKSPKSPAPELLGGPSVFLFPPKPKDTLMISRTPEVTCVVVDVSHEDPEVKFNWYVDGVEVHNAKTKPREEQYNSTYRVVSVLTVLHQDWLNGKEYKCKVSNKALPAPIEKTISKAKGQPREPQVYTKPPSREEMTKNQVSLSCLVKGFYPSDIAVEWESNGQPENNYKTTVPVLDSDGSFRLASYLTVDKSRWQQGNVFSCSVMHEALHNHYTQKSLSLSPGK
notes: also called VHH2-mono-Fc; mpIgR_338
Take B2: the EC50 in test [1] was 6.3 nM; in test [6], 6.3 nM; in test [14], 4 nM; in test [16], 4.2 nM; in test [17], 8.1 nM; in test [18] it was 1.8 nM. This molecule also registered an EC50 in [20] of 1.5 nM. Also, the Kd was 15.5 nM in test [2]; 14.9 nM in test [3]; 21.3 nM in [4]; 23 nM in [5]; 21 nM in test [10]; 21 nM in [15]. The “Transcytosis (Fold Incr.)” value in test [7] is 34.2 fold. Moreover, the binding result in test [8] is “no binding (tested: 100 ug/ml (single concentration))”; in test [9], “no binding (tested: 100 ug/ml (single concentration))”; with hpIgR_D3, “no binding (tested: 100 ug/ml (single concentration))”; with hpIgR_D2-D3, “no binding (tested: 100 ug/ml (single concentration))”; in test [19], “no binding”. Further, the Fold change in test [11] and in test [12] was 1.2 throughout. In addition, the “For. Trans. (Fold Incr.)” value in test [13] is 21 fold. Also, the “Rev. Trans (Fold Incr.)” value in test [13] is 5.7 fold.
